The record followed here is patent publication US6866854 (TRUSTEES OF COLUMBIA UNIVERSITY IN THE CITY OF NEW YORK, dated 2005).

The target of the experiment is T1, LANA2 fused to GAL4-AD (plasmid pGAD424) (Kaposi's sarcoma-associated herpesvirus …, UniProt F5HIC6 1-566).
T1 sequence: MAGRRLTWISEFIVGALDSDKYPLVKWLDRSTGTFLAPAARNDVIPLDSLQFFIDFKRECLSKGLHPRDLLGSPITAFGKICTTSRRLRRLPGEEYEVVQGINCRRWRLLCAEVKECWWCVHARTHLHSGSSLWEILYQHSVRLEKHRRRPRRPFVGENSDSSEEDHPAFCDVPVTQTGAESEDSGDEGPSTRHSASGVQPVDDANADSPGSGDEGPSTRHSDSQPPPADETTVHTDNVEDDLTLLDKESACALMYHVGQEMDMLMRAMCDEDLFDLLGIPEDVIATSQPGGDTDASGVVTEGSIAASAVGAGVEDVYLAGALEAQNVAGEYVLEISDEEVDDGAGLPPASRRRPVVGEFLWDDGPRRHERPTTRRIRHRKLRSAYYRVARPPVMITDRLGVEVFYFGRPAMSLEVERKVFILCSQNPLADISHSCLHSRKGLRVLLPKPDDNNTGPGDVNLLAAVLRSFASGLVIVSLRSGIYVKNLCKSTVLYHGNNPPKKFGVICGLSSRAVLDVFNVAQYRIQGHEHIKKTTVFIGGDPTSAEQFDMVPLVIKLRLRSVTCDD
In words: yeast two-hybrid assay, strain Y-190, b-galactosidase.

B1: murine p53 fused to GAL4 DNA-binding domain (DNA-BD/murine p53 fusion protein PVA3) (other)
chain: MKLLSSIEQACDICRLKKLKCSKEKPKCAKCLKNNWECRYSPKTKRSPLTRAHLTEVESRLERLEQLFLLIFPREDLDMILKMDSLQDIKALLTGLFVQDNVNKDAVTDRLASVETDMPLTLRQHRISATSSSEESSNKGQRQLTVSPVTETPGPVAPAPATPWPLSSFVPSQKTYQGNYGFHLGFLQSGTAKSVMCTYSPPLNKLFCQLAKTCPVQLWVSATPPAGSRVRAMAIYKKSQHMTEVVRRCPHHERCSDGDGLAPPQHLIRVEGNLYPEYLEDRQTFRHSVVVPYEPPEAGSEYTTIHYKYMCNSSCMGGMNRRPILTIITLEDSSGNLLGRDSFEVRVCACPGRDRRTEEENFRKKEVLCPELPPGSAKRALPTCTSASPPQKKKPLDGEYFTLKIRGRKRFEMFRELNEALELKDAHATEESGDSRAHSSYLKTKKGQSTSRHKKTMVKKVGPDSD
notes: also called p53 into the Gal4-BD cassette
As to B1, the binding result was “no binding”.
